Results as given in the nanobody polyreactivity screen of Harvey et al. (2022).

assay: yeast display, Sf9 membrane polyspecificity reagent, FACS + sequencing; frameworks hold sequencing errors
Outline: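 Synthetic nanobody libraries on Saccharomyces cerevisiae BJ5465 were galactose-induced for 36–48 hours, stained 1 hour at 4 °C with 10% biotinylated, detergent-solubilized Sf9 membrane reagent and enriched on streptavidin microbeads. FACS then separated cells into low and high (top ~1%) gates by anti-HA (expression) and streptavidin (reagent binding) fluorescence. Genes were colony-PCR amplified, MiSeq 2 × 250 sequenced and CDR-length filtered. A clone's polyreactivity label is that of its gate of origin.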

| Sequence | polyreactivity (PSR sort gate) |
| --- | --- |
| QVQLVESGGGLVQAGGSLRLICAASGRTFNINGMGWYRQAPGKERELVAAITTSGGSTYYADSVKGRFTISRDNAKNTVYLQMNSLKPEDTAVYYCAADVFSRKYLYGDYDYWGQGTQVTVSS | high polyreactivity |
| QVQLVESGGGLVQAGGSLRLICAASGRTFPGYGMGWYRQAPGKERELVAVITSNGGITYYADSVKGRFTISRDNAKNTVYLQMNSLKPEDTAVYYCAAYEIYNEFDSWGQGTQVTVSS | low polyreactivity |
| QVQLVESGGGLVQAGGSLRLICAASGRTFPRYTMGWYRQEPGNERELVAAISWRGGRTYYADSVKGRFTISLDNAKNTVYLLMNSLKPEDTAVYYCNAQKRDGSMGYWGQGTQVTVSS | high polyreactivity |
| QVQLVESGGGLVQAGGSLRLICAASGRTFPYNAMGWYRQAPGKEREFVAVISKGGGRTYYADSVKGRFTISRDNAKNTVYLQMNSLKPEDTAVYYCAKRIGLTFWGQGTQVTVSS | high polyreactivity |
| QVQLVESGGGLVQAGGSLRLICAASGRTFPYNTMGWYRQAPGKERELVAGISIRGSSTYYADSVKGRFTISRDNAKNTVYLQMNSLKPEDTAVYYCAKRYYGWYGNFDYWGQGTQVTVSS | high polyreactivity |
| QVQLVESGGGLVQAGGSLRLICAASGRTFRGNAKGCYRQAPGKERELVAAISGRGTNTYYADSVKGRFTISRDNAKNTVYLQMNSLKPEDTAVYYCAKVFYSYRDHYDYWGQGTQVTVSS | high polyreactivity |
| QVQLVESGGGLVQAGGSLRLICAASGRTFRGYAMGWYRQAPGKERELVAAISVTGSSTNYADSVKGRFTISRDNAKNTVYLQMNSLKPEDTAVYYCNAKRVRYSLSYDYWGQGTQVTVSS | high polyreactivity |
| QVQLVESGGGLVQAGGSLRLICAASGRTFRYNAMGWYRQAPGKERELVAAITLGASRTYYADSVKGRFTISRDNAKNTVYLQMNSLKPEDTAVYYCNAVGRRNVDSSLNDYWGQGTQVTVSS | low polyreactivity |
| QVQLVESGGGLVQAGGSLRLICAASGRTFTGYTMGWYRQAPGKEREFVAAISSNGGRTYYADSVKGRFTISRDNAKNTVYLQMNSLKPEDTAVYYCAAPYTFWGQGTQVTVSS | high polyreactivity |
| QVQLVESGGGLVQAGGSLRLICAASGRTFTRYAMGWYRQAPGKERELVAAITSGDSTYYADSVKGRFTISRDNAKNTVYLQMNSLKPEDTAVYYCAARTSYGYWYRRRYYYWGQGTQVTVSS | high polyreactivity |
| QVQLVESGGGLVQAGGSLRLICAASGRTFVPNVMGWYRQAPGKERELVAAITSGGSTYYADSVKGRFTISRDNAKNTVYLQMNSLKPEDTAVYYCAKRTSWKYGYWGQGTQVTVSS | high polyreactivity |
| QVQLVESGGGLVQAGGSLRLICAASGRTFYPSVMGWYRQAPGKERELVARIRWSGSSTYYADSVKGRFTISRDNAKNTVYLQMNSLKPEDTAVYYCNARPSWYVLGSSVHSGMGYWGQGTQVTVSS | high polyreactivity |
| QVQLVESGGGLVQAGGSLRLICAASGRTFYWNAMGWYRQAPGKERELVAAISDGGGSTYYADSVKGRFTISRDNAKNTVYLQMNSLKPEDTAVYYCNTPDNQDKPYPGYDYWGQGTQVTVSS | low polyreactivity |
| QVQLVESGGGLVQAGGSLRLICAASGRTIYIYTMGWYRQAPGKERELVASISWNGGRTYYADSVKGRFTISRDNAKNTVYLQMNSLKPEDTAVYYCAAQYGVYDYLGQGTQVTVSS | low polyreactivity |
| QVQLVESGGGLVQAGGSLRLICAASGSIFDYYDMGWYRQAPGKERELVAANNWSGGITYYADSVKGRFTISRDYAKNTVYLQMNSLKPEDTEVYFCAADWYQWVYSSSITSFDYWGQGTQVTVSS | low polyreactivity |
| QVQLVESGGGLVQAGGSLRLICAASGSIFFSYAMGSYRQAPGKERELVAGINRSGGSTYADSVKGRFTISRDNAKNTVNLQMTSLKPEDTAVYYCAAKYYSERSRYHYWGQGTQVTVSS | low polyreactivity |
| QVQLVESGGGLVQAGGSLRLICAASGSIFGINAMGWYRQAPGKERELVAAITWSGTSTYYADSVKGRFTISRDNAKNTDYLQMNSMKPEDTAVYYCAARVGRGYRTYGYWGQGTQVTVSS | high polyreactivity |
| QVQLVESGGGLVQAGGSLRLICAASGSIFGYYAMGWYRQAPGKERELVAGITNSGDTNYADSVKGRFTISRDNAKNTVYLQMNSLKPEDTAVYYCAADGSYQYYYWGQGTQVTVSS | low polyreactivity |
| QVQLVESGGGLVQAGGSLRLICAASGSIFINNGMGWYRQAPGKERELVAAINGGDGSTYYADSVKGRFTISRDNAKNTVYLQMNSLKPEDTAVYYCAADQVTYSVEYDYWGQGTQVTVSS | low polyreactivity |
| QVQLVESGGGLVQAGGSLRLICAASGSIFRPNAMGWYRQAPGKERELVAAITWSGDSTYYADSVKGRFTISRDNAKNTVYLQMNSLKPEDTAVYYCAADFTYQGSSANDYWGQGTQVTVSS | low polyreactivity |
| QVQLVESGGGLVQAGGSLRLICAASGSIFRYAMGWYRQAPGKERELVAAINRSGGSTYYADSVKGRFTISRDNAKNTVYLQMNSLKTEDTEVYYCAKDLRYGVNYRLVNRYGYWGQGTQVTVSS | high polyreactivity |

| Sequence | polyreactivity (PSR sort gate) |
| --- | --- |
| QVQLVESGGGLVQAGGSLRLICAASGSIFRYYAMGWYRQAHGKERELLAAISYSGGSTYYADSVKGRFTISRDNAKNTVYLQMNSLKPEDTAVYYCAKGRHTTRASIAFNYWGQGTQVTVSS | high polyreactivity |
| QVQLVESGGGLVQAGGSLRLICAASGSIFRYYAMGWYRQAPGKERELVATISWSGGGTYYADSVKGRFTISRHNAKNTVYLQMNSLKPEDTAVYYCAADYGEQYVYWGQGTQVTVSS | low polyreactivity |
| QVQLVESGGGLVQAGGSLRLICAASGSIFSRNAMGWYRQAPGKERELVASISWSSDITNYADSGKGRFTISRDNAKNTVYLEMNSLKAEDTAVYYCNVDGLLGERFSWGYDYWRQGTQVTVSS | low polyreactivity |
| QVQLVESGGGLVQAGGSLRLICAASGSIFSSYAMGWYRQAPGKERELVAAITSGGSTYYADSVKGRFTISRDNAKNTVYLQMNSLKPEDTAVYYCAARQVRTSKLHMGYWGQGTQVTVSS | low polyreactivity |
| QVQLVESGGGLVQAGGSLRLICAASGSIFSWYTMGWYRQAPGKERELVARITTSGGTTRYADSVKGRFTISRDNAKHTAFIQMNSLKPVDTAVYYCAADRSPYWRGYVRYNYWGQGTQVTVSS | high polyreactivity |
| QVQLVESGGGLVQAGGSLRLICAASGSIFVTNGMGWYRQAPGKERELVAAIRWSGDSTYYADSVKGRFTISRDNGKNTVFLLMKSLKPEDTAVYYCAAESFRYIRLNYKYGDYYWGQGTQVTVSS | high polyreactivity |
| QVQLVESGGGLVQAGGSLRLICAASGSIFVYNAMGWYRQAPGKERELVAAISQRGGSTYYADSVKGRFTISRDNAKNTVYLQMNSLKPEDTAVYYCAAGPGDSGDDYWGQGTQVTVSS | low polyreactivity |
| QVQLVESGGGLVQAGGSLRLICAASGSIFYIYAMGWYRQAPGKERELVAVIDNSGSTNYADSVKGRFTISRDNAKNTVYLLINSLKPEDTADYYCLKLWLWASYLYDYWGQGTQVTVSS | low polyreactivity |
| QVQLVESGGGLVQAGGSLRLICAASGSILSINGMGWYRQAPGKERELVATIDGSDGSTFYADSVKGRFTISRDNAKNTVYLQMNSLKPEDTAVYYCAAENFWQTKEYDYWGQGTQVTVSS | low polyreactivity |
| QVQLVESGGGLVQAGGSLRLICAASGSSFSYNPMVWYRQAPGKERELVAAIRTSGGRTYYADSVKGRFTISRDNAKNTVYLQMNSLKPEDTAVYYCAKRWVYSYGYEYWGQGTQVTVSS | high polyreactivity |
| QVQLVESGGGLVQAGGSLRLICAASGSTCVDNAMGGYRPAPGKERELVADISSVGSTYYADYVKGRFTISRDNAKNTVYLQMNTLIPEDTAVYYCNRAGGYRTTFYSWGQGTQVTVSS | high polyreactivity |
| QVQLVESGGGLVQAGGSLRLICAASGSTFAYNTMGWYRPAPGKERELVAAISWRGTRTYYADSVKGRFTISRDNAKNTVYLQMNSLKPEDTAVYYCATKYGISYDYWGLGTQVTVSS | high polyreactivity |
| QVQLVESGGGLVQAGGSLRLICAASGSTFCRYAMGRDRQARGKEMELVAAISTRGGSTRYADSVKGRFTISRDYAKYTVYLLINRLKPEDTGVYYCDALGQGRTSATSFVDYEYWGQGTQVTVSS | high polyreactivity |
| QVQLVESGGGLVQAGGSLRLICAASGSTFDINAMGWYRQAPGKERELVAAITWRSGRTYYADSVKGRFTISRDNAKNTVYLQMNSLKPEDTAVYYCAADDTSYYIYSYDYWGQGTQVTVSS | low polyreactivity |
| QVQLVESGGGLVQAGGSLRLICAASGSTFGEYAMGWYRQAHGKERELVAVITSDDNTYYADSVKGRFTISRDNAKNTVYLQMNSLKPEDTAVYYCAARGYVLARSQQWRREYYWGQGTQVTVSS | high polyreactivity |
| QVQLVESGGGLVQAGGSLRLICAASGSTFGGNVMGWYRQAPGKERELVAAINWSGGRTYYADSVKGRFTISRDNAKNTVYLQMNSLKPEDTAVYYCAADGGQNGMNYWGQGTQVTVSS | high polyreactivity |
| QVQLVESGGGLVQAGGSLRLICAASGSTFGIYAMGWFRQAPGKERELVAAISWRGGRTYYADSVKGSFTISRDNAKNNVYLQRNSLKPEDTAVYNCSADYRYLWEGYDYWGQGTQVTVSS | low polyreactivity |
| QVQLVESGGGLVQAGGSLRLICAASGSTFGRYAMGWYRQAPGKERELVAGITYGSTYYADSVKGRFTISRDNAKNTVYLQMHSLKPEDTAVYYCAADLSYTSVHGYRSDTLMDYWRQGTQVTVSS | low polyreactivity |
| QVQLVESGGGLVQAGGSLRLICAASGSTFGYYTMGWYRQAPGKERELVAAITWSGGSTYYADSVKGRFTISRDYANNTVYLQMNSLKPEDTAVYYCAADDYWTPFGYWGQGTQVTVLS | low polyreactivity |
| QVQLVESGGGLVQAGGSLRLICAASGSTFIVYAMGWSRQAPGKEREFVAAISSGDSTKYADSVKGRFTISRDNAKNTVYLQMNSLKPEDTAVYYCAKYGQRSIHSPSLVGYYYWGQGTQVTVSS | low polyreactivity |
